Measurements reported in US20020146774A1 (LUDWIG INSTITUTE FOR CANCER RESEARCH, published 2002).
Where no end group is shown, it is not given here. [ ]: non-standard residue; d: D form. pS = N[C@@H](COP(=O)(O)O)C(=O)O

Target: T1, GST (UniProt P08515 1-218 = GST)
T1 construct: Control for GST-Smad4; also called GST protein
Assay: peptide-Sepharose pull-down, anti-GST immunoblot
Source text: To investigate whether phosphorylated Ser465 and Ser467 of Smad2 are directly involved in heteromeric interaction with Smad4, phosphorylated and non-phosphorylated peptides corresponding to the C-terminus of Smad2 were made and tested for their ability to bind GST-Smad4 fusion proteins. Short C-terminal peptide of Smad2 SSMS (SNp; SEQ ID NO: 3) or its phosphorylated counterpart (SPp), as well as long C-terminal-peptide […] (LNp; SEQ ID NO: 4) or its phosphorylated counterpart (LPp), coupled to CNBr-Sepharose (peptide beads), were incubated with GST or GST-Smad4 fusion protein. For competition large excesses (200 μM) of non-phosphorylated short (SNp) or long (LNp) peptides or their phosphorylated counterpart (SPp and LPp, respectively) were used (block). Proteins bound to the beads, were resolved by SDS-PAGE, transferred to nitrocellulose membrane and immunoblotted with anti-GST antibodies. Migration positions of GST and GST-Smad4 are shown by double arrows. Molecular masses of standard proteins are indicated on the left side on gel in which protein-stained GST and GST-Smad4 are shown. […] The phosphorylated long peptide also bound GST-Smad4 more efficiently, than the non-phosphorylated counterpart, however, a considerable binding was observed also to the long non-phosphorylated peptide.

T1 sequence (P08515 whole entry): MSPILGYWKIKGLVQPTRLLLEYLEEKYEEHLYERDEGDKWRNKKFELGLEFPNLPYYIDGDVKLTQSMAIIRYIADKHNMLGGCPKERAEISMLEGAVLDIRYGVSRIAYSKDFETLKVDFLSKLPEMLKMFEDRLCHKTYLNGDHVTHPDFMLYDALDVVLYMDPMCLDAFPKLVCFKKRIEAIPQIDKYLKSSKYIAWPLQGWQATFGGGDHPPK

binding result: no binding
B1: short C-terminal peptide of Smad2 SSpMSp, doubly phosphorylated (peptide)
peptide: KKKS[pS]M[pS]
notes: The same phosphopeptide was the immunogen of the Smad2 phospho tail antibody; also called SPp
